Experimental data taken from patent JP2019147786A (dated 2019).

B1: 抗体A (mouse anti-human gp130 receptor monoclonal antibody from hybridoma) (antibody, mouse IgG1, kappa, V domains shown)
VH: EVLLQQSGPELVKPGASVKIPCKASGYTFTDYNMDWVKQSHGKSLEWIGDINSHSGGIIYNQKFKDKAILTVDKSSSTAYMELRSLTSEDTAVYYCARTYYVYGHFFDYWGQGTTLTVSS
VL: QSVLTQSPAFISASPGEKVTMTCNVSSSVTSMYWYQQKPGSSPKPWIYLTSNLASGVPPRFSGSGSGTSYSLTISSLEAEDAATYYCQQWSTNPLTFGAGTKLELKR
notes: also called マウス抗体A; antibody A
B2: 小型化マウス抗体A (Fab of mouse antibody A, from pUC-Fab-mAHmAL, E. coli) (Fab, V domains shown)
VH: B1 VH
VL: B1 VL
B3: hAH1mAL (Fab: humanized VH hAH1 with the mouse L chain of antibody A, from pUC-Fab-hAH1mAL) (Fab, V domains shown)
VH: QVQLQQPGAELVQPGTSVRLSCKASGYTFTDYNMDWVKQRPGQGLEWIGDINSHSGGIIYNQKFKDKATLTVDKSSSTAYMQLSSLTSEDSAVYYCARTYYVYGHFFDYWGQGTLVTVSA
VL: B1 VL
B4: hAH1hAL1 (humanized Fab, VH SEQ ID NO 25, VL SEQ ID NO 76, from pUC-Fab-hAH1hAL1) (Fab, V domains shown)
VH: B3 VH
VL: DIQMTQSPSSLSASVGDRVTITCNVSSSVTSMYWYQQKQGKSPQLLVYLTSNLASGVPARFSGSGSGTEFTLTISSLQPDDFATYYCQQWSTNPLTFGAGTKLDLKR
B5: hAH1hAL3 (full-length humanized anti-gp130 receptor antibody, H chain hAH1, L chain hAL3, made in CHO DG44 cells) (antibody, human IgG1, kappa, V domains shown)
VH: B3 VH
VL: DIQMTQSPSSLSASVGDRVTITCNVSSSVTSMYWFQQRPGQAPKVLIYLTSNLASGVPSRFSGSGSGTEFTLTISSLQPDDFATYYCQQWSTNPLTFGQGTKVEIKR
notes: Human IgG1, kappa constant regions; also called ヒト化抗体hAH1hAL3
B6: hAH1hAL2 (humanized Fab, VH SEQ ID NO 25, VL SEQ ID NO 77, from pUC-Fab-hAH1hAL2) (Fab, V domains shown)
VH: B3 VH
VL: ELVLTQSPGTLSLSAGERATLSCNVSSSVTSMYWYQQKPGKAPKLLIYLTSNLASGVPSRFSGSGSGTQFSLKINNLQPEDFGSYYCQQWSTNPLTFGAGTKLDLKR

Experiments:
[1] = molecular target: T1, 可溶性ヒトgp130受容体 (soluble human gp130 receptor, extracellular region with six histidines, made in CHO DG44 cells) (human, UniProt P40189 23-619); experiment: ELISA, soluble gp130 coated on the plate, hybridoma supernatant, anti-mouse HRP
T1 construct: The stated range 1-619 begins at Met 1 and so holds the native signal peptide; also called 可溶性ヒトgp130受容体タンパク質; ヒトgp130受容体
T1 sequence: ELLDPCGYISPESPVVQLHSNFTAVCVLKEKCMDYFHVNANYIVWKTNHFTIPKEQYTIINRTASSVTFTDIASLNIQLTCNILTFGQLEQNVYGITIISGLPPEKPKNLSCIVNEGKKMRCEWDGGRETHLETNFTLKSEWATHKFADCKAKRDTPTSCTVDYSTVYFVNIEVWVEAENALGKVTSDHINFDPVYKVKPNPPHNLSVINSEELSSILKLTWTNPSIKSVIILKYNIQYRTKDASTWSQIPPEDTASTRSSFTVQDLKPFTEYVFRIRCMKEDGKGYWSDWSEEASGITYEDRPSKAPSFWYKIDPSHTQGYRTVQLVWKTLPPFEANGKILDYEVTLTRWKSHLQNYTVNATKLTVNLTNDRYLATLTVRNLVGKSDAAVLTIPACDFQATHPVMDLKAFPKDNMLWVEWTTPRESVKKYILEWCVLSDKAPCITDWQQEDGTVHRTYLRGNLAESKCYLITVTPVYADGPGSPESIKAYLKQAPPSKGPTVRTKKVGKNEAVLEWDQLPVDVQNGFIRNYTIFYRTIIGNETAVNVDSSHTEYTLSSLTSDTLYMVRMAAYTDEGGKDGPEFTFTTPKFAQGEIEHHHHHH

[2] = molecular target: T1, 可溶性ヒトgp130受容体 (soluble human gp130 …); experiment: SPR (Biacore T200), gp130 amine-coupled on CM5 (352 RU), Fab as analyte, 25 C
[3] = molecular target: T1, 可溶性ヒトgp130受容体 (soluble human gp130 …); experiment: SPR (Biacore T200), gp130 amine-coupled on CM5 (235.2 RU), Fab as analyte
[4] = molecular target: T1, 可溶性ヒトgp130受容体 (soluble human gp130 …); experiment: SPR (Biacore T200), gp130 amine-coupled on CM5 (376 RU), full-length IgG as analyte

Kd [2]	koff [2]	kon [2]	Kd [3]	koff [3]	kon [3]	also measured	Binder
–	–	–	–	–	–	binding result [1]: binds	B1
598 pM	8.42e-05 s⁻¹	141000 M⁻¹ s⁻¹	–	–	–	–	B2
460 pM	8.21e-05 s⁻¹	178000 M⁻¹ s⁻¹	–	–	–	–	B3
–	–	–	218 pM	5.6e-05 s⁻¹	257000 M⁻¹ s⁻¹	–	B4
–	–	–	–	–	–	Kd [4]: 585 pM; koff [4]: 7.25e-05 s⁻¹; kon [4]: 124000 M⁻¹ s⁻¹	B5
–	–	–	594 pM	7.05e-05 s⁻¹	119000 M⁻¹ s⁻¹	–	B6
